Results on two substances are retold here after PMC3983062.

The assay has as its target RRV ORF45 (R45), as expressed in RRV-infected rhesus fibroblasts (Rhesus monkey rhadinovirus (RRV), strain H26-95) (UniProt Q9J2K2). The experiment in a line: FRET or BRET; filter-based processed FRET (PFRET) on fixed RRV-infected RhF stained with labelled antibodies (Alexa488 donor, Alexa555 acceptor); regions of interest in the nuclei.

“pERK2 (phosphorylated, activated ERK2), endogenous in rhesus fibroblasts (from UniProt F7ECR3 1-360) (natural protein)” displayed a r (distance between the fluorophores, from FRET) of 4.5 nm.

The substance “RSK2 (p90 ribosomal S6 kinase 2), endogenous in rhesus fibroblasts (natural protein)” came in with a r (distance between the fluorophores, from FRET) of 4.7 nm.
